Results as given in the supplement of paper PMC11246515.
± gives the standard deviation of the averaged measurements.

Assay: total protein half-life in vivo (active degradation + dilution); higher = more stable protein
[1] = E. coli NCM3722 delta-clpP, growth: N-lim chemostat, doubling time 6 h
[2] = E. coli NCM3722 delta-hslV, growth: N-lim chemostat, doubling time 6 h
[3] = E. coli NCM3722 delta-lon, growth: N-lim chemostat, doubling time 6 h
[4] = E. coli NCM3722 delta-smpB, growth: N-lim chemostat, doubling time 6 h
[5] = wild type E. coli NCM3722, growth: C-lim chemostat, doubling time 3 h
[6] = wild type E. coli NCM3722, growth: C-lim chemostat, doubling time 6 h
[7] = wild type E. coli NCM3722, growth: N-lim chemostat, doubling time 6 h
[8] = wild type E. coli NCM3722, growth: N-lim chemostat, doubling time 12 h
[9] = wild type E. coli NCM3722, growth: P-lim chemostat, doubling time 6 h
[10] = wild type E. coli NCM3722, growth: P-lim chemostat, doubling time 12 h
[11] = wild type E. coli NCM3722, growth: C-lim chemostat, doubling time 12 h
[12] = E. coli NCM3722 delta-clpP delta-lon delta-hslV, growth: N-lim chemostat, doubling time 6 h

| Sequence | total protein half-life in vivo [1] [h] | total protein half-life in vivo [2] [h] | total protein half-life in vivo [3] [h] | total protein half-life in vivo [4] [h] | total protein half-life in vivo [5] [h] | total protein half-life in vivo [6] [h] | total protein half-life in vivo [7] [h] | total protein half-life in vivo [8] [h] | total protein half-life in vivo [9] [h] | total protein half-life in vivo [10] [h] | total protein half-life in vivo [11] [h] | total protein half-life in vivo [12] [h] |
| --- | --- | --- | --- | --- | --- | --- | --- | --- | --- | --- | --- | --- |
| MAIALVTGGSRGIGRATALLLAQEGYTVAVNYQQNLHAAQEVMNLITQAGGKAFVLQADISDENQVVAMFTAIDQHDEPLAALVNNAGILFTQCTVENLTAERINRVLSTNVTGYFLCCREAVKRMALKNGGSGGAIVNVSSVASRLGSPGEYVDYAASKGAIDTLTTGLSLEVAAQGIRVNCVRPGFIYTEMHASGGEPGRVDRVKSNIPMQRGGQAEEVAQAIVWLLSDKASYVTGSFIDLAGGK | 5.48 ± 0.058 | 5.67 | 5.69 ± 0.45 | 4.82 | 3.03 ± 0.14 | 5.93 | 4.66 ± 0.41 | 8.32 ± 0.23 | 6.41 ± 0.74 | 11.2 ± 1.9 | – | – |
| MAIERTFSIIKPNAVAKNVIGNIFARFEAAGFKIVGTKMLHLTVEQARGFYAEHDGKPFFDGLVEFMTSGPIVVSVLEGENAVQRHRDLLGATNPANALAGTLRADYADSLTENGTHGSDSVESAAREIAYFFGEGEVCPRTR [P0A763] | 3.93 ± 0.36 | 3.85 ± 0.32 | 4.39 ± 0.36 | 3.92 ± 0.15 | 3.09 ± 0.092 | 5.64 ± 0.11 | 3.88 ± 0.28 | 6.19 ± 0.36 | 5 ± 0.82 | 10.6 ± 0.11 | 9.324 ± 0.023 | – |
| MAIKKRSATVVPGASGAAAAVKNPQASKTSFWGELPQHVMSGISRMVPTLIMGGVILAFSQLIAYSWLKIPAEIGIMDALNSGKFSGFDLSLLKFAWLSQSFGGVLFGFAIPMFAAFVANSIGGKLAFPAGFIGGLMSTQPTQLLNFDPSTMQWATSSPVPSTFIGALIISIVAGYLVKWMNQKIQLPDFLLAFKTTFLLPILSAIFVMLAMYYVITPFGGWINGGIRTVLTAAGEKGALMYAMGIAAATAIDLGGPINKAAGFVAFSFTTDHVLPVTARSIAIVIPPIGLGLATIIDRRLTGKRLFNAQLYPQGKTAMFLAFMGISEGAIPFALESPITAIPSYMVGAIVGSTAAVWLGAVQWFPESAIWAWPLVTNLGVYMAGIALGAVITALMVVFLRLMMFRKGKLLIDSL | – | – | – | – | 2.72 | 4.59 ± 0.42 | – | – | – | – | 6.4 | – |
| MAINNTGSRRLLVTLTALFAALCGLYLLIGGGWLVAIGGSWYYPIAGLVMLGVAWMLWRSKRAALWLYAALLLGTMIWGVWEVGFDFWALTPRSDILVFFGIWLILPFVWRRLVIPASGAVAALVVALLISGGILTWAGFNDPQEINGTLSADATPAEAISPVADQDWPAYGRNQEGQRFSPLKQINADNVHNLKEAWVFRTGDVKQPNDPGEITNEVTPIKVGDTLYLCTAHQRLFALDAASGKEKWHYDPELKTNESFQHVTCRGVSYHEAKAETASPEVMADCPRRIILPVNDGRLIAINAENGKLCETFANKGVLNLQSNMPDTKPGLYEPTSPPIITDKTIVMAGSVTDNFSTRETSGVIRGFDVNTGELLWAFDPGAKDPNAIPSDEHTFTFNSPNSWAPAAYDAKLDLVYLPMGVTTPDIWGGNRTPEQERYASSILALNATTGKLAWSYQTVHHDLWDMDLPAQPTLADITVNGQKVPVIYAPAKTGNIFVLDRRNGELVVPAPEKPVPQGAAKGDYVTPTQPFSELSFRPTKDLSGADMWGATMFDQLVCRVMFHQMRYEGIFTPPSEQGTLVFPGNLGMFEWGGISVDPNREVAIANPMALPFVSKLIPRGPGNPMEQPKDAKGTGTESGIQPQYGVPYGVTLNPFLSPFGLPCKQPAWGYISALDLKTNEVVWKKRIGTPQDSMPFPMPVPVPFNMGMPMLGGPISTAGNVLFIAATADNYLRAYNMSNGEKLWQGRLPAGGQATPMTYEVNGKQYVVISAGGHGSFGTKMGDYIVAYALPDDVK | 7.31 ± 0.86 | 5.96 ± 0.15 | 6.58 ± 0.58 | 6.14 ± 0.11 | 3.18 ± 0.17 | 6.44 ± 0.37 | 6.04 ± 0.28 | 13.4 ± 0.83 | 6.54 ± 0.22 | 13.69 ± 0.084 | 13.8 ± 0.65 | 6.446 ± 0.039 |
| MAIRLYKLAVALGVFIVSAPAFSHGHHSHGKPLTEVEQKAANGVFDDANVQNRTLSDWDGVWQSVYPLLQSGKLDPVFQKKADADKTKTFAEIKDYYHKGYATDIEMIGIEDGIVEFHRNNETTSCKYDYDGYKILTYKSGKKGVRYLFECKDPESKAPKYIQFSDHIIAPRKSSHFHIFMGNDSQQSLLNEMENWPTYYPYQLSSEEVVEEMMSH | – | 7.32 ± 0.35 | – | – | 3.24 ± 0.14 | 6.23 ± 0.17 | – | > 16 | 5.89 ± 0.14 | – | 12.8 ± 0.55 | 5.56 |
| MAISIKGVNTGVIRKSNNFIALALKIKEPRNKESLFFMSVMELRDLLIALESRLHQKHKLDAAAHLQYEQARDKVIKKMAENIPEILVDELKNADINRRVNTLELTDNQGENLTFVLTLHDGSKCELVVNELQIEMLARAIIHAINNAEMRELALRITSLLDFLPLYDVDCQDNGNLEYDTYSQPEWKHNLFDHYLAVLYRFKDESGKEQFSGAVVKTREATPGKEIEAITRRMLDFSPRLKKLAGVPCQVYVRTVAANNAQPLTQDQCLRALHHLRVQSTSKTAPQAK | – | – | – | 2.7 ± 0.24 | 2.52 ± 0.14 | 4.83 ± 1.6 | – | – | – | – | – | 5.19 ± 0.073 |
| MAISSRNTLLAALAFIAFQAQAVNVTVAYQTSAEPAKVAQADNTFAKESGATVDWRKFDSGASIVRALASGDVQIGNLGSSPLAVAASQQVPIEVFLLASKLGNSEALVVKKTISKPEDLIGKRIAVPFISTTHYSLLAALKHWGIKPGQVEIVNLQPPAIIAAWQRGDIDGAYVWAPAVNALEKDGKVLTDSEQVGQWGAPTLDVWVVRKDFAEKHPEVVKAFAKSAIDAQQPYIANPDVWLKQPENISKLARLSGVPEGDVPGLVKGNTYLTPQQQTAELTGPVNKAIIDTAQFLKEQGKVPAVANDYSQYVTSRFVQ | 4.56 ± 0.22 | 5.96 ± 0.29 | 5.56 ± 0.55 | – | 2.98 ± 0.11 | 5.75 ± 1.8 | 5.5 ± 0.39 | 12.4 ± 0.93 | 6.77 ± 1.1 | 11 ± 0.14 | 13.2 ± 2.6 | 4.13 ± 0.43 |
